B1: GST-tagged spRed1 peptide (SDKEDGEISEDDP) (peptide)
chain: SDKEDGEISEDDP
notes: source: E. coli (vectors for expression in E. coli)

Experiments:
[1] = biological target: ZZ-ctRed1_(spep) (residues 1040–1091) (Chaetomium thermophilum); test: ITC; MicroCal PEAQ-ITC, 25 °C, 20 mM HEPES pH 7.5, 150 mM NaCl; 30 µM ZZ-ctRed1spep in the cell, 250 µM ctMtr4SA in the syringe; duplicate
[2] = biological target: T1, full-length spArs2 (in vitro binding) (S. pombe, UniProt O94326 1-609); test: pull-down; GST pull-down: bait with 1.5 molar excess of prey, 20 mM HEPES pH 7.5, 150 mM NaCl (or higher, up to 600 mM or 1.5 M in the washes), 5% glycerol, 0.1% NP-40, 4 °C, glutathione agarose; SDS-PAGE, Coomassie; details: both partners purified
T1 construct: Ars2, S. pombe; source: E. coli (vectors for expression in E. coli)
T1 sequence (looked up): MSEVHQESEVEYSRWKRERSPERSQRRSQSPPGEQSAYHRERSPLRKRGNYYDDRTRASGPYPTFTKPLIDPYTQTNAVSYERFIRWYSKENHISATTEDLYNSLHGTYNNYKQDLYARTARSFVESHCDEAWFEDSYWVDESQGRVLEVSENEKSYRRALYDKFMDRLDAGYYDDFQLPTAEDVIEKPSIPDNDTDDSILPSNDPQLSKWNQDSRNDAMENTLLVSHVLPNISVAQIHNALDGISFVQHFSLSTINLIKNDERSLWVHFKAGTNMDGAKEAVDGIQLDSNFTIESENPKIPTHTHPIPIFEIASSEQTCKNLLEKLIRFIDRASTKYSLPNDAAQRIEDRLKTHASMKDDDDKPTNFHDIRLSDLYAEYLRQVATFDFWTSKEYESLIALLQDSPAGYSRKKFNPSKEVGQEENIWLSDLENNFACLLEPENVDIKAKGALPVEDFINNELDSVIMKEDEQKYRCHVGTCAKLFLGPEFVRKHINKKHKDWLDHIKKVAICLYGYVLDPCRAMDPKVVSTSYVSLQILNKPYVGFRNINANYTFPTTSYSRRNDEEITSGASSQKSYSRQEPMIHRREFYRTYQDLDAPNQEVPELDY

| Molecule | Kd [1] [nM] | stoichiometry N [1] | binding result [2] |
| --- | --- | --- | --- |
| ctMtr4SA (residues 654–865), purified for ITC (domain or fragment) | 115 | 1 |  |
| B1 |  |  | binds |
